Measurements reported in US20240238451A1.

How the values were obtained:
Assay in all cases: cell-based or functional assay
[1] = biological target: EGFP [GFP: P42212]
[2] = biological target: ALFA-tagged GAL4-VP16
[3] = biological target: mCherry

Question: Which reduction of secreted Gluc signal with mTagBFP2 instead of EGFP (HeLa) [1] does the source give for Gluc-biNIR-FbGFP fusion here?
Answer: 78%

Question: What does the source list for NIR-FbGFP-GAL4 fusion?
Answer: decrease of Gluc bioluminescent signal with mTagBFP2 instead of EGFP (GAL4/UAS reporter, HeLa) [1]: 25 fold; reduction of mCherry reporter level in the absence of EGFP (pUAS-mCherry reporter) [1]: 3 fold

Question: For NIR-FbGFP-NbALFA (bispecific antibody), which reduction of Gluc signal without EGFP against EGFP-expressing cells (ALFA-GAL4, pUAS-Gluc, HeLa) [2] is on record?
Answer: 75%

Question: “NIR-FbmCherry-NbGFP fusion (bispecific antibody)” was tested. Which reduction in EGFP fluorescence in the absence of mCherry [1] did it give?
Answer: 60%

Question: How did the decrease of Gluc signal with mTagBFP2 instead of EGFP (GAL4/UAS reporter, HeLa) [1] turn out when biNIR-FbGFP-GAL4 was run?
Answer: 50 fold

Question: “biNIR-FbGFP-NbALFA (bispecific antibody)” was tested. Which reduction of Gluc signal in the absence of EGFP (ALFA-GAL4, pUAS-Gluc, HeLa) [2] did it give?
Answer: 85%

Question: With “bispecific NIR-FbGFP-NIR-FbmCherry fusion (bispecific antibody)” as the substance, how does the drop of NIR fluorescence when only mCherry (no EGFP) is co-expressed [1] read?
Answer: 10 fold

Question: What about the drop of NIR fluorescence when only EGFP (no mCherry) is co-expressed [3] of the same substance?
Answer: 10 fold
